Laboratory results reported in PMC9813255 (2023).

T1: GST-Atxn1-86Q (UniProt P54253 1-815)
T1 chain: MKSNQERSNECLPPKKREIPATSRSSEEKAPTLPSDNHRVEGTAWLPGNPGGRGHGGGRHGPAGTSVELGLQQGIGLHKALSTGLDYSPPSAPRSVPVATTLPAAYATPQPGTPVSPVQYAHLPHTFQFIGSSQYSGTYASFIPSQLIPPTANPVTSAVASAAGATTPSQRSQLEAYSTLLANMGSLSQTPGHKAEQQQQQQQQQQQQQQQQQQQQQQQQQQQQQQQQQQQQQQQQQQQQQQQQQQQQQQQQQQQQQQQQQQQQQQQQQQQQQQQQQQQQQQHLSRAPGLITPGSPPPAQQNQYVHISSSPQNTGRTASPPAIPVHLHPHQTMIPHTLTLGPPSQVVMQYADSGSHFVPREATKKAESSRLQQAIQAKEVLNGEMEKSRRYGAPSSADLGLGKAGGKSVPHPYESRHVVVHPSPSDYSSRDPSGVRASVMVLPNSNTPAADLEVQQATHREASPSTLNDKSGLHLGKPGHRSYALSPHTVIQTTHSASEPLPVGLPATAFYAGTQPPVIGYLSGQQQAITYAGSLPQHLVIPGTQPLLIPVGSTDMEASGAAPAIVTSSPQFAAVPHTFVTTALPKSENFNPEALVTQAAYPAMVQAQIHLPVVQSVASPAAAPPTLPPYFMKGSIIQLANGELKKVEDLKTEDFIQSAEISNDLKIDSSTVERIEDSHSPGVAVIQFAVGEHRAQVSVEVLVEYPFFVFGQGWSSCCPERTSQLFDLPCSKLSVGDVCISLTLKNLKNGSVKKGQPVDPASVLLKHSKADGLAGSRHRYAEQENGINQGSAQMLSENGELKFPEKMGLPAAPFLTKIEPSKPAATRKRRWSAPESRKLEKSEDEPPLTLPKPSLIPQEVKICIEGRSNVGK

T2: GST-Htt-20Q
T2 chain: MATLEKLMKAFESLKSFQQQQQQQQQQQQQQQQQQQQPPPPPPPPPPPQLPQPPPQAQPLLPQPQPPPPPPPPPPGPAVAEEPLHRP

T3: GST-Atxn1-33Q (UniProt P54253 1-815)
T3 chain: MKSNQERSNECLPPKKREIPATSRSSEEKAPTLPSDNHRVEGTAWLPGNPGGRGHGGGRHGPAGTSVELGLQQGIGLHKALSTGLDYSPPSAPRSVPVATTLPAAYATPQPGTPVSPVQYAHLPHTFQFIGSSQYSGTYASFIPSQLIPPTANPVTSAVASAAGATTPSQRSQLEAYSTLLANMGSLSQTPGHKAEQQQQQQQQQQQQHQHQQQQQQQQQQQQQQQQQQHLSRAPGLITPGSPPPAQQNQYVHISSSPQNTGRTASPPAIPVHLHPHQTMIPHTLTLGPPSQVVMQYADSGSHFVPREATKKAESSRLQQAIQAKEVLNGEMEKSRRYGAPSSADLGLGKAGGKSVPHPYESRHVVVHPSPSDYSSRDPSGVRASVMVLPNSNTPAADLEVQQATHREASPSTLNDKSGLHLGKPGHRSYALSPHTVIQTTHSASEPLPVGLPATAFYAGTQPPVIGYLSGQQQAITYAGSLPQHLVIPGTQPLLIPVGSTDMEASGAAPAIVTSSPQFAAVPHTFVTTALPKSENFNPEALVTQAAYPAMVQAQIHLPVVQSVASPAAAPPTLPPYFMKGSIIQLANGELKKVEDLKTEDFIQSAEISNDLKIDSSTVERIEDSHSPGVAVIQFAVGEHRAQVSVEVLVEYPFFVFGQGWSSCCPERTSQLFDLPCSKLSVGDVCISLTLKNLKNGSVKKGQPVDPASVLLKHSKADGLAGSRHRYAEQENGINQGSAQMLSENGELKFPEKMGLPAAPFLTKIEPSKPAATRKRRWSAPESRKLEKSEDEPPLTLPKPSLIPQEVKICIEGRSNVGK

B1: PQBP5-Δ2 (protein)
chain: PRTRNRVGLLDCALNSVTADSEINSLPTISALKFNGALTMAVGTTTGQVLLYDLRSDKPLLVKDHQYGLPIKSVHFQDSLDLILSADSRIVKMWNKNSGKIFTSLEPEHDLNDVCLYPNSGMLLTANETPKMGIYYIPVLGPAPRWCSFLDNLTEELEENPESTVYDDYKFVTKKDLENLGLTHLIGSPFLRAYMHGFFMDIRLYHKVKLMVNPFAYEEYRKDKIRQKIEETRAQRVQLKKLPKVNKELALKLIEEEEEKQKSTWKKKVKSLPNILTDDRFKVMFENPDFQVDEESEEFRLLNPLVSKISEKRKKKLRLLEQQELREKEEEEEPEGKPSDAESSESSDDEKAWVEEVRKQRRLLQQEEKVKRQERLKEDQQTVLKPQFYEIKAGEEFRSFKDSATKQKLMNKTLEDRLKIEAKNGTLSVSDTTVGSKQLTFTLKRSEQQKKQQEAEKLHRQERKRLRRSAGHLKSRHKRGRSFH
modifications: Delta number assigned from the order of the constructs in the methods; initiator Met from the primer and tag omitted.
B2: PQBP5-Δ5 (protein)
chain: MQVSSLNEVKIYSLSCGKSLPEWLSDRKKRALQKKDVDVRRRIELIQDFEMPTVCTTIKVSKDGQYILATGTYKPRVRCYDTYQLSLKFERCLDSEVVTFEILSDDYSKIVFLHNDRYIEFHSQSGFYYKTRIPKFGRDFSYHYPSCDLYFVGASSEVYRLNLEQGRYLNPLQTDAAENNVCDINSVHGLFATGTIEGRVECWDPRTRNRVGLLDCALNSVTADSEINSLPTISALKFNGALTMAVGTTTGQVLLYDLRSDKPLLVKDHQYGLPIKSVHFQDSLDLILSADSRIVKMWNKNSGKIFTSLEPEHDLNDVCLYPNSGMLLTANETPKMGIYYIPVLGPAPRWCSFLDNLTEELEENPESTVYDDYKFVTKKDLENLGLTHLIGSPFLRAYMHGFFMDIRLYHKVKLMVNPFAYEEYRKDKIRQKIEETRAQRVQLKKLPKVNKELALKLIEEEEEKQKSTWKKKVKSLPNILT
modifications: Delta number assigned from the order of the constructs in the methods (fifth: 1-481, lacking NUC153); tag omitted.
B3: PQBP5-Δ1 (protein)
chain: TYQLSLKFERCLDSEVVTFEILSDDYSKIVFLHNDRYIEFHSQSGFYYKTRIPKFGRDFSYHYPSCDLYFVGASSEVYRLNLEQGRYLNPLQTDAAENNVCDINSVHGLFATGTIEGRVECWDPRTRNRVGLLDCALNSVTADSEINSLPTISALKFNGALTMAVGTTTGQVLLYDLRSDKPLLVKDHQYGLPIKSVHFQDSLDLILSADSRIVKMWNKNSGKIFTSLEPEHDLNDVCLYPNSGMLLTANETPKMGIYYIPVLGPAPRWCSFLDNLTEELEENPESTVYDDYKFVTKKDLENLGLTHLIGSPFLRAYMHGFFMDIRLYHKVKLMVNPFAYEEYRKDKIRQKIEETRAQRVQLKKLPKVNKELALKLIEEEEEKQKSTWKKKVKSLPNILTDDRFKVMFENPDFQVDEESEEFRLLNPLVSKISEKRKKKLRLLEQQELREKEEEEEPEGKPSDAESSESSDDEKAWVEEVRKQRRLLQQEEKVKRQERLKEDQQTVLKPQFYEIKAGEEFRSFKDSATKQKLMNKTLEDRLKIEAKNGTLSVSDTTVGSKQLTFTLKRSEQQKKQQEAEKLHRQERKRLRRSAGHLKSRHKRGRSFH
modifications: Delta number assigned from the order of the constructs in the methods; initiator Met from the primer and tag omitted. Exon 1 ends at ...LHRP, which agrees with the printed Htt reverse primer. The entry carries 21Q (18-38); one Q is removed to give the 20Q of the assayed protein name. The plasmid is called 17Q, so the repeat count is ambiguous. GST omitted.
B4: full-length human PQBP5 (His-tag fusion protein) (natural protein)
chain: MQVSSLNEVKIYSLSCGKSLPEWLSDRKKRALQKKDVDVRRRIELIQDFEMPTVCTTIKVSKDGQYILATGTYKPRVRCYDTYQLSLKFERCLDSEVVTFEILSDDYSKIVFLHNDRYIEFHSQSGFYYKTRIPKFGRDFSYHYPSCDLYFVGASSEVYRLNLEQGRYLNPLQTDAAENNVCDINSVHGLFATGTIEGRVECWDPRTRNRVGLLDCALNSVTADSEINSLPTISALKFNGALTMAVGTTTGQVLLYDLRSDKPLLVKDHQYGLPIKSVHFQDSLDLILSADSRIVKMWNKNSGKIFTSLEPEHDLNDVCLYPNSGMLLTANETPKMGIYYIPVLGPAPRWCSFLDNLTEELEENPESTVYDDYKFVTKKDLENLGLTHLIGSPFLRAYMHGFFMDIRLYHKVKLMVNPFAYEEYRKDKIRQKIEETRAQRVQLKKLPKVNKELALKLIEEEEEKQKSTWKKKVKSLPNILTDDRFKVMFENPDFQVDEESEEFRLLNPLVSKISEKRKKKLRLLEQQELREKEEEEEPEGKPSDAESSESSDDEKAWVEEVRKQRRLLQQEEKVKRQERLKEDQQTVLKPQFYEIKAGEEFRSFKDSATKQKLMNKTLEDRLKIEAKNGTLSVSDTTVGSKQLTFTLKRSEQQKKQQEAEKLHRQERKRLRRSAGHLKSRHKRGRSFH
modifications: Exon 1 ends at ...LHRP, which agrees with the printed Htt reverse primer. The entry carries 21Q (18-38); one Q is removed to give the 20Q of the assayed protein name. The plasmid is called 17Q, so the repeat count is ambiguous. GST omitted.
B5: PQBP5-Δ3 (protein)
chain: IPVLGPAPRWCSFLDNLTEELEENPESTVYDDYKFVTKKDLENLGLTHLIGSPFLRAYMHGFFMDIRLYHKVKLMVNPFAYEEYRKDKIRQKIEETRAQRVQLKKLPKVNKELALKLIEEEEEKQKSTWKKKVKSLPNILTDDRFKVMFENPDFQVDEESEEFRLLNPLVSKISEKRKKKLRLLEQQELREKEEEEEPEGKPSDAESSESSDDEKAWVEEVRKQRRLLQQEEKVKRQERLKEDQQTVLKPQFYEIKAGEEFRSFKDSATKQKLMNKTLEDRLKIEAKNGTLSVSDTTVGSKQLTFTLKRSEQQKKQQEAEKLHRQERKRLRRSAGHLKSRHKRGRSFH
modifications: Delta number assigned from the order of the constructs in the methods; initiator Met from the primer and tag omitted. Exon 1 ends at ...LHRP, which agrees with the printed Htt reverse primer. The entry carries 21Q (18-38); one Q is removed to give the 20Q of the assayed protein name. The plasmid is called 17Q, so the repeat count is ambiguous. GST omitted.
B6: PQBP5-Δ2 (protein)
chain: B1 chain
modifications: Delta number assigned from the order of the constructs in the methods; initiator Met from the primer and tag omitted. Exon 1 ends at ...LHRP, which agrees with the printed Htt reverse primer. The entry carries 21Q (18-38); one Q is removed to give the 20Q of the assayed protein name. The plasmid is called 17Q, so the repeat count is ambiguous. GST omitted.
B7: PQBP5-Δ5 (protein)
chain: B2 chain
modifications: Delta number assigned from the order of the constructs in the methods (fifth: 1-481, lacking NUC153); tag omitted. Exon 1 ends at ...LHRP, which agrees with the printed Htt reverse primer. The entry carries 21Q (18-38); one Q is removed to give the 20Q of the assayed protein name. The plasmid is called 17Q, so the repeat count is ambiguous. GST omitted.
B8: PQBP5-Δ3 (protein)
chain: B5 chain
modifications: Delta number assigned from the order of the constructs in the methods; initiator Met from the primer and tag omitted.

Target: T1, GST-Atxn1-86Q
Experiment: SPR
Binder B1 has a Kd of 183 nM. For B2, the Kd was 0.128 nM.

Target: T2, GST-Htt-20Q
Experiment: SPR
B3 showed a Kd of 2.67 nM. Work on B4 yielded a Kd of 0.0308 nM. B5 was tested, and the Kd was 402 nM. B6 showed a Kd of 463 nM. B7 was tested, and the Kd was 0.354 nM.

Target: T3, GST-Atxn1-33Q
Experiment: SPR
With B8 the Kd was 255 nM. B1 was tested, and the Kd was 830 nM. B2 was tested, and the Kd was 0.194 nM.
